In US20150024453A1, “INTEGRATED PROCESS FOR DUAL BIOCATALYTIC CONVERSION OF CO2 GAS INTO BIO-PRODUCTS BY ENZYME ENHANCED HYDRATION AND BIOLOGICAL CULTURE” (CO2 SOLUTIONS INC., priority 2012, published 2015):

Test: Tests of carbonic anhydrase activity in carbonate absorption solutions
Assay type: biochemical
Text: The absorption solution that is fed to the enzymatic bicarbonate production unit may be a sodium carbonate solution having a sodium carbonate concentration between about 0.3M and about 2.4M (temperature being between about 30 t for a concentration of about 2.5M) or a potassium carbonate solution having a potassium carbonate concentration between about 1M and about 2M. Tests have confirmed that carbonic anhydrase has good activity in sodium carbonate between 0.3M and 0.5M and in potassium carbonate at 1.45M. Halophile-type carbonic anhydrase, with elevated resistance to salt, may be used for higher concentrations. As opposed to carbonates, bicarbonates are less soluble (two times less approximately) and, therefore, if precipitation occurs, it would be of bicarbonate salts rather than carbonate salts. Cooling the ion loaded solution exiting the enzymatic CO2 capture unit may also encourage precipitation, as the solubility of bicarbonates and carbonates would be lowered. For sodium bicarbonate, temperature may be carefully adjusted since below about 30° C., a solution at 2.5M would not be soluble. The following Solubility Table may be used to set, adjust or control the carbonate or bicarbonate concentration as well as temperature in the enzymatic bicarbonate production and CO2 capture unit: […]

## carbonic anhydrase
In potassium carbonate at 1.45M
  enzyme activity: good activity
In sodium carbonate between 0.3M and 0.5M
  enzyme activity: good activity
